Data: article PMC314469, “Protein Interaction Networks by Proteome Peptide Scanning” (PLoS Biology, 2004)

T1: amphyphisin SH3 (AMPH_HUMAN), P49418
T1 chain: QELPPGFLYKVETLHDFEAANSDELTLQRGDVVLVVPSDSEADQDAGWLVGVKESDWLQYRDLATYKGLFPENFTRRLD


How the values were obtained:
[1] = molecular target: T1, amphyphisin SH3 (AMPH_HUMAN), P49418; test: SPOT array
[2] = molecular target: endophilin SH3 (SH3G2_HUMAN), Q99962; test: SPOT array

normalised SPOT signal, Boehringer light units (BLU); mean over the file's lines of this peptide [1]	normalised SPOT signal, Boehringer light units (BLU); mean over the file's lines of this peptide [2]	Binder
29.5	50.9	KSRTLKRPTVLEPI [O60469 1933-1946]
3060	180	APANLERPVRYIRK [Q9NYB9 126-139]
29	2250	KTKGPSRPPLDAKI [Q9HC16 39-53]
30.4	20.4	LARIPNKPPPEYPG [Q15678 740-754]
39.4	47.7	KYSGPYKPPGILKQ [P20933 176-190]
9120	403	KTEKPERPSRERDR [Q02241 662-675]
16200	5620	KVTAPRRPQRYSSG [Q9ULI4 1214-1227]
199	2440	APALPPKPPKPTTV [P27986 303-317]
239	80.8	KTKTLLRPERSRFD [O75705 229-242]
16	27.9	LAITLRRPGSELEA [Q96KY5 32-45]
37.4	37.7	LAHVLRRPIVVVAD [Q9NQ53 317-330]
1320	7680	KSQGPAKPPPPRKP [Q13444 758-772]
34.3	173	LANELRRPPLSYHN [P07996 308-321]
168	398	KSLRIARPPKQGLN [P49815 945-958]
21	993	KVFLLRRPPQAPLP [Q9P2E8 92-105]
53.5	98	LAELPGRPPIFWPG [Q9C056 106-120]
64.7	278	KRVVPKKPPPSPQP [Q13438 518-532]
31.7	38.4	KSLKLRRPLYAHLA [Q13304 138-151]
36.6	41.5	KTFGIRRPLDPLDP [Q9C0J1 326-339]
45.6	629	LAHILRRPIIVYGV [Q9UGI0 529-542]
37.1	45.3	LAQPLRRPSSVGEL [O43379 748-761]

normalised SPOT signal, Boehringer light units (BLU); mean over the file's lines of this peptide [1]	normalised SPOT signal, Boehringer light units (BLU); mean over the file's lines of this peptide [2]	Binder
48.7	2170	LAYFPPRPPLPPSV [Q96SL1 246-260]
46.4	36.9	KYSAPRRPTATGDY [O00501 199-212]
27.9	0	KRNSLKRPRDVDHR [Q9H8U9 166-179]
5990	37600	APALPARPHRGLST [Q9UFL7 72-85]
3230	223	KTLRLWRPPRYPRK [Q9NPT6 50-63]
2280	838	LALFLKRPKRSLFF [P41440 199-212]
4080	1730	KVHVPARPYRVLNN [P46013 726-739]
1090	22900	LASRPTRPPEPRHI [O94836 267-281]
23.2	660	LATQPKRPMSIPII [P16144 1316-1329]
733	232	KSQYFWRPKRMELS [Q9NYS8 813-826]
708	318	APEALPRPRREGEL [Q9HA29 107-120]
87.1	148	KTHPLIRPFKTLTE [Q15413 2649-2662]
24.7	40.5	KSKKFRRPDIQYPD [P10451 170-183]
24.8	574	KSPIPRRPTQSFVK [Q9ULL0 591-604]
32	78	LASTPKRPSTSQTV [P12270 638-651]
31.5	57.5	KTTPLRRPTETNPV [P46100 660-673]
77.5	1180	LAARLRRPSPPEPW [Q9P1Y6 933-946]
19.4	-0	LAEELIRPERNTLV [Q14566 49-62]
51.5	322	KSLPLRRPSYTLGM [O43166 958-971]
99.3	198	LAEGINRPRKGHDA [O95985 371-384]
62.4	37.5	LAELPQKPPPGDLP [Q9ULH1 746-760]
